“Also recorded” adds a separate entry of the source.

Consider 5 molecules from patent US7939292B2, “Modified heparinase III and methods of sequencing therewith” (Massachusetts Institute of Technology, priority 2000, dated 2011).

The data set can be described thus: Heparinase III kinetic assay of r-heparinase III and histidine mutants. Type of data set: biochemical. The settings on record: for kcat / Km: heparan sulfate; for Km: calculated assuming a molecular weight of 15 kDa; for enzymatic activity towards heparan sulfate: kinetic data and exhaustive digest profile. How it is done:
The activity of heparinase III was measured using a UV 232 nm assay similar to those reported for heparinase I and heparinase II (Godavarti, R., Cooney, C. L., Langer, R., and Sasisekharan, R. (1996) Biochemistry 35, 6846-52; Shriver, Z., Hu, Y., and Sasisekharan, R. (1998) J. Biol. Chem. 273, 10160-67; and Lohse, D. and Linhardt, R. J. (1992) J. Biol. Chem. 267, 781-87). Briefly, the increase in absorbance at 232 nm as a function of time was monitored under saturating substrate conditions. All assays were performed with heparan sulfate at a concentration of 2 mg/ml in 50 mM sodium phosphate, pH 7.6. The temperature for enzymatic activity measurements was kept constant at 35° C.
In parallel to the mapping studies and to confirm the results of the chemical modification experiments, each of the thirteen histidine residues present in heparinase III was mutated to alanine. The recombinant heparinase III mutant proteins were expressed, purified, and assessed for enzymatic activity towards heparan sulfate (Table 2).

B1: H539A: recombinant heparinase III with histidine 539 mutated to alanine (protein)
chain: MTTKIFKRIIVFAVIALSSGNILAQSSSITRKDFDHINLEYSGLEKVNKAVAAGNYDDAAKALLAYYREKSKAREPDFSNAEKPADIRQPIDKVTREMADKALVHQFQPHKGYGYFDYGKDINWQMWPVKDNEVRWQLHRVKWWQAMALVYHATGDEKYAREWVYQYSDWARKNPLGLSQDNDKFVWRPLEVSDRVQSLPPTFSLFVNSPAFTPAFLMEFLNSYHQQADYLSTHYAEQGNHRLFEAQRNLFAGVSFPEFKDSPRWRQTGISVLNTEIKKQVYADGMQFELSPIYHVAAIDIFLKAYGSAKRVNLEKEFPQSYVQTVENMIMALISISLPDYNTPMFGDSWITDKNFRMAQFASWARVFPANQAIKYFATDGKQGKAPNFLSKALSNAGFYTFRSGWDKNATVMVLKASPPGEFHAQPDNGTFELFIKGRNFTPDAGVFVYSGDEAIMKLRNWYRQTRIHSTLTLDNQNMVITKARQNKWETGNNLDVLTYTNPSYPNLDHQRSVLFINKKYFLVIDRAIGEATGNLGVAWQLKEDSNPVFDKTKNRVYTTYRDGNNLMIQSLNADRTSLNEEEGKVSYVYNKELKRPAFVFEKPKKNAGTQNFVSIVYPYDGQKAPEISIRENKGNDFEKGKLNLTLTINGKQQLVLVP
A word on the kcat: it is the number of substrate molecules converted per active site and unit of time at saturation. The Km is the concentration of substrate that gives half-maximal velocity. Consider B1, for which the “changes in recombinant protein yield, enzyme activity, or kinetic parameters compared with r-heparinase III” value (“changes in recombinant protein yield” for short) is listed as “no significant changes”; the kcat came out at 132 s⁻¹; the Km was 92 µM.

B2: H36A: recombinant heparinase III with histidine 36 mutated to alanine (protein)
chain: MTTKIFKRIIVFAVIALSSGNILAQSSSITRKDFDAINLEYSGLEKVNKAVAAGNYDDAAKALLAYYREKSKAREPDFSNAEKPADIRQPIDKVTREMADKALVHQFQPHKGYGYFDYGKDINWQMWPVKDNEVRWQLHRVKWWQAMALVYHATGDEKYAREWVYQYSDWARKNPLGLSQDNDKFVWRPLEVSDRVQSLPPTFSLFVNSPAFTPAFLMEFLNSYHQQADYLSTHYAEQGNHRLFEAQRNLFAGVSFPEFKDSPRWRQTGISVLNTEIKKQVYADGMQFELSPIYHVAAIDIFLKAYGSAKRVNLEKEFPQSYVQTVENMIMALISISLPDYNTPMFGDSWITDKNFRMAQFASWARVFPANQAIKYFATDGKQGKAPNFLSKALSNAGFYTFRSGWDKNATVMVLKASPPGEFHAQPDNGTFELFIKGRNFTPDAGVFVYSGDEAIMKLRNWYRQTRIHSTLTLDNQNMVITKARQNKWETGNNLDVLTYTNPSYPNLDHQRSVLFINKKYFLVIDRAIGEATGNLGVHWQLKEDSNPVFDKTKNRVYTTYRDGNNLMIQSLNADRTSLNEEEGKVSYVYNKELKRPAFVFEKPKKNAGTQNFVSIVYPYDGQKAPEISIRENKGNDFEKGKLNLTLTINGKQQLVLVP
As for B2, the “changes in recombinant protein yield” value is reported as “no significant changes”; the kcat was 86 s⁻¹; the Km is 98 µM.

B3: H295A: recombinant heparinase III with histidine 295 mutated to alanine (protein)
chain: MTTKIFKRIIVFAVIALSSGNILAQSSSITRKDFDHINLEYSGLEKVNKAVAAGNYDDAAKALLAYYREKSKAREPDFSNAEKPADIRQPIDKVTREMADKALVHQFQPHKGYGYFDYGKDINWQMWPVKDNEVRWQLHRVKWWQAMALVYHATGDEKYAREWVYQYSDWARKNPLGLSQDNDKFVWRPLEVSDRVQSLPPTFSLFVNSPAFTPAFLMEFLNSYHQQADYLSTHYAEQGNHRLFEAQRNLFAGVSFPEFKDSPRWRQTGISVLNTEIKKQVYADGMQFELSPIYAVAAIDIFLKAYGSAKRVNLEKEFPQSYVQTVENMIMALISISLPDYNTPMFGDSWITDKNFRMAQFASWARVFPANQAIKYFATDGKQGKAPNFLSKALSNAGFYTFRSGWDKNATVMVLKASPPGEFHAQPDNGTFELFIKGRNFTPDAGVFVYSGDEAIMKLRNWYRQTRIHSTLTLDNQNMVITKARQNKWETGNNLDVLTYTNPSYPNLDHQRSVLFINKKYFLVIDRAIGEATGNLGVHWQLKEDSNPVFDKTKNRVYTTYRDGNNLMIQSLNADRTSLNEEEGKVSYVYNKELKRPAFVFEKPKKNAGTQNFVSIVYPYDGQKAPEISIRENKGNDFEKGKLNLTLTINGKQQLVLVP
On to B3, for which the “enzymatic activity towards heparan sulfate” value is “completely inactive; also recorded: no enzymatic activity”.

B4: H152A: recombinant heparinase III with histidine 152 mutated to alanine (protein)
chain: MTTKIFKRIIVFAVIALSSGNILAQSSSITRKDFDHINLEYSGLEKVNKAVAAGNYDDAAKALLAYYREKSKAREPDFSNAEKPADIRQPIDKVTREMADKALVHQFQPHKGYGYFDYGKDINWQMWPVKDNEVRWQLHRVKWWQAMALVYAATGDEKYAREWVYQYSDWARKNPLGLSQDNDKFVWRPLEVSDRVQSLPPTFSLFVNSPAFTPAFLMEFLNSYHQQADYLSTHYAEQGNHRLFEAQRNLFAGVSFPEFKDSPRWRQTGISVLNTEIKKQVYADGMQFELSPIYHVAAIDIFLKAYGSAKRVNLEKEFPQSYVQTVENMIMALISISLPDYNTPMFGDSWITDKNFRMAQFASWARVFPANQAIKYFATDGKQGKAPNFLSKALSNAGFYTFRSGWDKNATVMVLKASPPGEFHAQPDNGTFELFIKGRNFTPDAGVFVYSGDEAIMKLRNWYRQTRIHSTLTLDNQNMVITKARQNKWETGNNLDVLTYTNPSYPNLDHQRSVLFINKKYFLVIDRAIGEATGNLGVHWQLKEDSNPVFDKTKNRVYTTYRDGNNLMIQSLNADRTSLNEEEGKVSYVYNKELKRPAFVFEKPKKNAGTQNFVSIVYPYDGQKAPEISIRENKGNDFEKGKLNLTLTINGKQQLVLVP
B4: the “changes in recombinant protein yield” value is reported as “no significant changes”; the kcat was 83 s⁻¹; the Km was 58 µM.

B5: H510A: recombinant heparinase III with histidine 510 mutated to alanine (protein)
chain: MTTKIFKRIIVFAVIALSSGNILAQSSSITRKDFDHINLEYSGLEKVNKAVAAGNYDDAAKALLAYYREKSKAREPDFSNAEKPADIRQPIDKVTREMADKALVHQFQPHKGYGYFDYGKDINWQMWPVKDNEVRWQLHRVKWWQAMALVYHATGDEKYAREWVYQYSDWARKNPLGLSQDNDKFVWRPLEVSDRVQSLPPTFSLFVNSPAFTPAFLMEFLNSYHQQADYLSTHYAEQGNHRLFEAQRNLFAGVSFPEFKDSPRWRQTGISVLNTEIKKQVYADGMQFELSPIYHVAAIDIFLKAYGSAKRVNLEKEFPQSYVQTVENMIMALISISLPDYNTPMFGDSWITDKNFRMAQFASWARVFPANQAIKYFATDGKQGKAPNFLSKALSNAGFYTFRSGWDKNATVMVLKASPPGEFHAQPDNGTFELFIKGRNFTPDAGVFVYSGDEAIMKLRNWYRQTRIHSTLTLDNQNMVITKARQNKWETGNNLDVLTYTNPSYPNLDAQRSVLFINKKYFLVIDRAIGEATGNLGVHWQLKEDSNPVFDKTKNRVYTTYRDGNNLMIQSLNADRTSLNEEEGKVSYVYNKELKRPAFVFEKPKKNAGTQNFVSIVYPYDGQKAPEISIRENKGNDFEKGKLNLTLTINGKQQLVLVP
As for B5, the “changes in recombinant protein yield” value is “no significant changes” and the “enzymatic activity towards heparan sulfate” value was “completely inactive; also recorded: no enzymatic activity”.
